Data published in PMC5760045, “The centrosomin CM2 domain is a multi-functional binding domain with distinct cell cycle roles” (PLoS ONE, 2018).

What was measured:
[1] = molecular target: CM2 Δ1130–1148 (Drosophila melanogaster) (UniProt P54623); test: SEC-MALS; KW-802.5 size exclusion column with inline MALS and refractive index detectors; 50mM HEPES pH 7.0, 200mM NaCl, 1mM DTT; dimer constructs also at submicromolar concentrations (1μM and 9μM for aa1074-1148)
[2] = molecular target: centrosomin CM2 aa1090-1148 (monomeric CM2) (Drosophila melanogaster) (UniProt P54623); test: NMR titration; 2D [15N,1H]-HSQC of 100μM 15N labeled monomeric CM2 with 18μM CaM; 2mM EGTA added in place of 2mM CaCl2; 300K; 20mM PIPES pH 6.8, 140mM NaCl; apparent affinity
[3] = molecular target: the molecule itself; test: SEC-MALS; KW-802.5 size exclusion column with inline MALS and refractive index detectors; 50mM HEPES pH 7.0, 200mM NaCl, 1mM DTT; dimer constructs also at submicromolar concentrations (1μM and 9μM for aa1074-1148)
[4] = molecular target: T1, GB1-CNNLZ (CNN aa490-567 fused to the GB1 solubility tag) (Drosophila melanogaster, UniProt P54623-2 490-567); test: NMR titration; 2D [15N,1H]-HSQC of 100μM 15N labeled CM2 with unlabeled partner added; 300K; 20mM PIPES pH 6.8, 140mM NaCl, 0.01% NaN3, 5% D2O, 2mM CaCl2; 800 MHz; settings: both partners purified
T1 construct: centrosomin (CNN), Drosophila melanogaster, residues 490-567 with the leucine zipper, the same fragment as in the crystal structure 5MWE; The introduction gives aa490-544 for CNNLZ of Feng et al; the results give aa490-567 for the fragment used here; also called GB1-CnnMD; source: E. coli, purified (NiNTA, size exclusion)
T1 sequence (looked up): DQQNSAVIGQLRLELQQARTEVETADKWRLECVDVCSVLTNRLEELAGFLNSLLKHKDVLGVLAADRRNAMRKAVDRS

Question: How did the stoichiometry N [1] turn out when “CM2 Δ1130–1148 (from UniProt P54623-2 1-1129) (domain or fragment)” was run?
Answer: 2

Question: Which reduction of the apparent affinity without calcium (2mM EGTA) against 2mM CaCl2 [2] does the source give for “calmodulin (from UniProt P62152 1-149) (natural protein)” here?
Answer: 50 to 70%

B1: centrosomin CM2 aa1074-1148 (minimal dimeric CM2) (domain or fragment, Drosophila melanogaster, UniProt P54623-2 1074-1148, looked up)
chain: VATGAATVHDCAKVDLENAELRRKLIRTKRAFEDTYEKLRMANKAKAQVEKDIKNQILKTHNVLRNVRSNMENEL
notes: centrosomin (CNN), Drosophila melanogaster, residues 1074-1148, from cDNA LD19135; 15N-labelled in the NMR experiments; also called CM2 dimer; minimal dimer construct; source: E. coli, purified (NiNTA, cation exchange; non-labeled protein also size exclusion)
Question: With B1 as the molecule, how does the “stoichiometry N” value [3] read?
Answer: 2

B2: centrosomin CM2 aa1090-1148 (monomeric CM2) (domain or fragment, Drosophila melanogaster, UniProt P54623-2 1090-1148, looked up)
chain: ENAELRRKLIRTKRAFEDTYEKLRMANKAKAQVEKDIKNQILKTHNVLRNVRSNMENEL
notes: centrosomin (CNN), Drosophila melanogaster, residues 1090-1148 (start of the predicted coiled coil to the C-terminus), from cDNA LD19135; 15N-labelled (or 13C/15N) in the NMR experiments; also called CM2 monomer; truncated CM2; source: E. coli, purified (NiNTA, cation exchange; non-labeled protein also size exclusion)
Question: Does B2 bind [4]?
Answer: binds

B3: centrosomin CM2 aa1064-1148 (longer dimeric CM2) (domain or fragment, Drosophila melanogaster, UniProt P54623-2 1064-1148, looked up)
chain: ESTSPDSKSNVATGAATVHDCAKVDLENAELRRKLIRTKRAFEDTYEKLRMANKAKAQVEKDIKNQILKTHNVLRNVRSNMENEL
notes: centrosomin (CNN), Drosophila melanogaster, residues 1064-1148, from cDNA LD19135; source: E. coli, purified (NiNTA, cation exchange, size exclusion)
Question: For B3, which “stoichiometry N” value [3] is on record?
Answer: 2
